{"source": "paper PMC10528708", "binders": {"B1": {"name": "d(CTG)10 (structured_DNA)", "DNA": "CTGCTGCTGCTGCTGCTGCTGCTGCTGCTG"}}, "target": "T1, CHF-1Flu (tomato aspermy virus)", "T1 chain": "RKRHKLNR", "assay": "fluorescence polarization"}
{"binder": "B1", "values": [{"measurement": "Kd", "value": "440 ± 79", "unit": "nM"}]}
